# How the values were obtained:
# [1] = molecular target: hFcγRIIIa-158F-streptavidin-His (human) (UniProt P08637); assay: BLI
# [2] = molecular target: hFcγRIIIa-158V-streptavidin-His (human) (UniProt P08637); assay: BLI
# Chain of hFcγRIIIa-158V-streptavidin-His (human) (P08637 17-208 F176V): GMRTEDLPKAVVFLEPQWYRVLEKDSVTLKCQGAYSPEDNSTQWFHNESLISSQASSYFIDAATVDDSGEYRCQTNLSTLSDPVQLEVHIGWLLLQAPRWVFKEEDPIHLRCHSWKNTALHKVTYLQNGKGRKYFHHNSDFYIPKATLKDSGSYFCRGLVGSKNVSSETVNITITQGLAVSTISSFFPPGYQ
# Chain of hFcγRIIIa-158F-streptavidin-His (human) (P08637 17-208): as the sequence (P08637 17-208 F176V) above, with V160F counted along it
substance,measurement,setting,value
Trastuzumab-DE (S239D/I332E) from Xencor,Kd,[1],67.3 nM
same,Kd,[2],46.5 nM

# Source: patent US20240425612A1
